Among the data in the supplement of paper PMC10126150 are switch fluorescence ratio values, retold here.

± gives the standard deviation of the averaged measurements.

This data set concerns ATP. As to the kind of experiment: switch fluorescence ratio, 500 uM ATP over buffer (Cy3 cluster intensity, sum of 5 cycles each) (fold (ratio)); higher = stronger signal-on switching upon ATP binding; sequences stand for … in TCGTCGGCAGCGTCAGATGTGTATAAGAGACAGTTTTTTTTTTTTTTTTTTTTTTTTT…TC. As to conditions: aptamer strand: ATP DNA aptamer (quencher-CACCTGGGGGAGTATTGCGGAGGAAGG + anchor), 100 nM annealed; ATP concentration: 500 uM. The procedure, abridged: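 Cy3-labelled switching-strand clusters on a modified Illumina MiSeq flow-cell were annealed to 100 nM quencher-labelled ATP aptamer and imaged first in selection buffer, then after 15 min with 500 uM ATP at 22 °C. NaOH stripping and re-annealing separated each of five buffer/ATP cycles, and clusters outside 100-1000 RFU were excluded. The fluorescence ratio sums target-cycle Cy3 intensity over buffer-cycle Cy3 intensity per cluster and averages it per switch-domain sequence.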
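Also: ATP exposure 15 min at 22 °C before imaging.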

On to CCTATATAGA, for which the switch fluorescence ratio amounted to 0.999 ± 0.029.
The result for CCTATGGTTC reads 1.07 ± 0.053; that for CCTATTACGA, 1.04 ± 0.015.
For CCTATTATTA, the switch fluorescence ratio came to 1.02 ± 0.028.
The result for CCTATTCCGG reads 1.05 ± 0.03.
As to CCTATTCGTT, the switch fluorescence ratio is 1.0064 ± 0.0008.
For CCTATTTTTT the value was 1.01 ± 0.034; for CCTCAATGGT, 1.39 ± 0.045.
The result for CCTCACCCTT reads 1.13 ± 0.013; that for CCTCACTAGT, 1.0949 ± 8.2e-05; that for CCTCATCTTG, 1.018 ± 0.0048.
Turning to CCTCGGGGGG, the switch fluorescence ratio was 1.06 ± 0.1.
The result for CCTCTGGAGG reads 1.09 ± 0.013; that for CCTCTTGAGG, 0.978 ± 0.016.
Consider CCTGAAACCT, for which the switch fluorescence ratio came to 1.51 ± 0.48.
Take CCTGAGATAC: the switch fluorescence ratio was found to be 1.88 ± 1.
With CCTGAGGTTC, the switch fluorescence ratio worked out at 1.03 ± 0.061.
For CCTGAGTTC the value was 0.996 ± 0.031; for CCTGGAAAGT, 0.985 ± 0.0074; for CCTGGCATGC, 2.56 ± 0.24.
For CCTGGCATTG the value was 1.18 ± 0.09; for CCTGGCATTT, 2.2 ± 1.4; for CCTGGCCAGC, 0.978 ± 0.015.
Consider CCTGGCTATC, for which the switch fluorescence ratio was 3.44 ± 0.91.
On to CCTGGCTCAT, for which the switch fluorescence ratio came to 1.06 ± 0.037.
With CCTGGGATT, the switch fluorescence ratio turned out to be 1.02 ± 0.011.
For CCTGGGGAAA the value was 0.946 ± 0.021; for CCTGGGGATT, 1.07 ± 0.18; for CCTGGGGGTC, 1.03 ± 0.024.
Turning to CCTGGGGTAT, the switch fluorescence ratio stood at 1.09 ± 0.05.
As for CCTGGGGTCG, the switch fluorescence ratio is 1.05 ± 0.05.
As for CCTGGGTCGA, the switch fluorescence ratio is 1.022 ± 0.0044.
With CCTGGGTGAA, the switch fluorescence ratio was determined as 1.2 ± 0.03.
Turning to CCTGGGTTAG, the switch fluorescence ratio was determined as 0.998 ± 0.017.
For CCTGGTCCTA the value was 0.9879 ± 0.0074; for CCTGGTGACG, 1.035 ± 0.002.
For CCTGGTTAGG the value was 0.983 ± 0.013.
Consider CCTGTACCAC, for which the switch fluorescence ratio worked out at 1.07 ± 0.019.
The result for CCTGTGGGGG reads 0.993 ± 0.028; that for CCTGTGGTGC, 1.342 ± 0.0072.
The result for CCTGTGTCCG reads 1.12 ± 0.052; that for CCTGTTAAAT, 1.05 ± 0.022.
For the sequence CCTGTTGCGA, the switch fluorescence ratio was 2.66 ± 0.52.
CCTGTTGGTT: the switch fluorescence ratio stood at 0.955 ± 0.033.
As for CCTGTTTCAG, the switch fluorescence ratio stood at 1.05 ± 0.018.
The result for CCTTAACGGC reads 1.06 ± 0.015.
In the case of CCTTAGGGGG, the switch fluorescence ratio came to 1.24 ± 0.33.
As to CCTTATTGTC, the switch fluorescence ratio amounted to 0.997 ± 0.024.
For CCTTATTTTC the value was 0.9984 ± 0.0059; for CCTTCTAGTT, 1.035 ± 0.0018; for CCTTGACGGG, 1.18 ± 0.17.
The result for CCTTGAGGGC reads 1.34 ± 0.38; that for CCTTGAGGGG, 0.9925 ± 0.0036.
For CCTTGCGGGA the value was 1.06 ± 0.011; for CCTTGTAGGG, 1.02 ± 0.03.
Turning to CCTTGTTTAA, the switch fluorescence ratio was 1.01 ± 0.086.
The result for CCTTTAGGGT reads 0.9997 ± 0.0014; that for CCTTTATGGT, 0.983 ± 0.011.
In the case of CCTTTGCCGC, the switch fluorescence ratio was 1.58 ± 0.54.
With CCTTTGCTGT, the switch fluorescence ratio was found to be 1.073 ± 0.0024.
The result for CCTTTGGGCT reads 0.989 ± 0.025.
Take CGAAAAATGG: the switch fluorescence ratio stood at 1.04 ± 0.046.
With CGAAAACTTT, the switch fluorescence ratio was 1.07 ± 0.064.
For CGAAAAGAAT the value was 1.02 ± 0.029.
For CGAAAATGGG the value was 0.9772 ± 0.0058; for CGAAAATTAA, 1 ± 0.047.
